Here are results for five molecules from US11505586B2, “Interaction of Draxin and γ-netrins” (Max-Planck-Gesellschaft zur Foerderung der Wissenschaften …, priority 2014, dated 2022).

The test system of assay [1] is Netrin1a. Briefly: AVEXIS extracellular protein-protein interaction screen. Type of assay: binding, zebrafish. The text has this: To detect extracellular protein-protein interactions in a high-throughput manner we used the AVEXIS assay as described in Bushell et al. (Bushell et al., 2008) with minor modifications.
In brief: A zebrafish protein library enriched for mainly in neuronal tissues expressed secreted proteins and extracellular domains of cell surface proteins has been assembled. The library consists of prey and bait proteins. Preys are composed of the extracellular domain (ECD) of interest followed by a CD4 tag (rat Cd4d3+4) and a pentamerization domain derived from the rat Comp protein followed by β-lactamase. For the bait proteins the ECDs are fused to a CD4 tag and a biotinylation peptide. […] The proteins in the supernatants have been quantified and normalized.
The bait proteins have been immobilized on streptavidin coated 96 well microtiter plates (one bait/well) and incubated for 1 hour at room temperature. […] Then the absorbance at 486 nm of each well has been measured using a μQuant spectrophotometer (BIO-TEK Instruments, INC). […]
In the primary screen interactions were ‘called’ if the absorbance (at 486 nm) of a well after 1 h of incubation was ≥0.1 and 3 Sigma above the standard deviations of the mean of all wells. All interactions detected in the primary screen have been retested in a validation screen by using independently produced batches of proteins.

Assay [2] concerns Netrin1a/DCC. The experiment in a line: AVEXIS based competition assay. Type of assay: binding, zebrafish. The following applies: for inhibition of binding of Netrin1a to DCC: inhibitor added together with DCC prey, Netrin1a bait. The text has this:
(§1) The procedure of the competition assay is based on the AVEXIS assay. Netrin1 receptors were used as prey proteins together with 6×His ? tagged purified Draxin (potential antagonist), and probed against Netrin1a bait proteins. The indicated concentrations of the potential inhibitors have been added together with prey proteins. For the competition tests with purified Draxin the concentration of the Netrin receptor prey proteins has been adjusted to an identical threshold binding concentration.
We determined the concentration of ECD-hFc fusion proteins in tissue culture supernatants by ELISA, using the human IgG Fc fragment (Calbiochem) as a reference. Dilution series of the ECD-hFc containing supernatants have been incubated over night at 4° C. on 96 well Maxisorp plates (Nunc). After 3 PBS washes the plates were blocked with 0.5% BSA containing PBS (1 h). After additional 2 PBS washes and 1-hour incubation with an anti-human IgG (Fc specific) antibody fused to alkaline phosphatase (SIGMA) the plates have been washed 3 times with PBS. The detection has been carried out by addition of 50 μl/well of the AP substrate p-nitrophenylphosphate (SouthernBiotech). The substrate turnover has been determined by measuring the absorbance at 405 nm.
(§2) By using an AVEXIS-based competition assay (FIG. 6 A) we tested whether the binding of DraxinA to Netrin1a has an influence on Netrins ability to bind to Netrin receptors. First we confirmed that we reliably detected the binding of Netrin1a to Netrin receptors of the DCC/Neo1 and Unc5 families with the AVEXIS method. We also tested whether Draxin is able to bind to the corresponding Netrin receptors. […] This has also been confirmed by a recent publication (Haddick et al. 2014). In the competition assay the extracellular domains (ECDs) of Netrin receptors have been used as prey proteins together with purified full length DraxinA and probed for binding against Netrin1a bait proteins. […] The inhibition is specific for DraxinA.

The test system of assay [3] is Netrin1a/Neo1. The experiment in a line: AVEXIS based competition assay. Type of assay: binding, zebrafish. The following applies: purified protein with Neo1 prey, Netrin1a bait.
Source text: as §1, §2

Assay [4] deals with Netrin1a/Unc5b. The experiment in a line: AVEXIS based competition assay. Type of assay: binding, zebrafish. The note with it: purified protein with Unc5b prey, Netrin1a bait.
Source text: as §1, §2

In assay [5] the test system is RGMc/Neo1. The experiment in a line: AVEXIS based competition assay. It is filed as binding, zebrafish.
Assay [6] relates to endogenous netrins. The experiment in a line: In situ detection of Draxin binding partners with affinity probe. Further details: species or system zebrafish. As for the experimental part:
A netrin binding fragment of Draxin (aa209-284) fused to the Fc region of human IgG (Draxinaa209-284-hFc) has been expressed in HEK293-6E cells and used as an affinity probe to detect binding partners in zebrafish embryos. Draxinaa209-284-hFc in situ staining has been done in whole mount wild type and netrin-1 knockdown zebrafish embryos. At 46 hpf wild type zebrafish embryos were dechorionated by for 2 hours at RT incubation in 0.1 mg/ml Pronase. At 48 hpf embryos were prefixed for 10 min at RT in 4% (w/v) paraformaldehyde (PFA) containing 1% Triton X-100 (v/v). After 3 washes (each 20 min) with PBS+1% Triton X-100 the embryos were blocked for 4 h at RT in PBS containing 0.2% BSA and 0.5% Triton X-100. Overnight incubation at 4° C. with HEK293-6E supernatant containing the Draxin-hFc fusion protein was followed by 3 short washes (10 min each) with PBST. Subsequently the embryos were post-fixed in 4% PFA (4 h at RT or overnight at 4° C.), rinsed shortly 3 times with PBST and incubated for 4 h at RT with an Alexa Fluor 568 goat anti human IgG antibody (Invitrogen, 1:250 dilution). After 3 washes (30 min each) in PBST the embryos were mounted in glycerol for visualization using a Zeiss LSM 510 microscope. […]

Assay [7] concerns the target T1, Netrin-1 (Homo sapiens, UniProt O95631).
T1 construct: made in house; host or cells: HEK293-6E (general AVEXIS method)
The experiment in a line: AVEXIS pairwise binding screen, human proteins. The following applies: both bait/prey orientations. The text has this: (§3) AVEXIS was used to test pairwise binding events in both bait/prey orientations between human DRAXIN, the derived 21 amino acid peptide, human Netrin family members, and two representative Netrin receptors (DCC, UNC5B). The Matn4-bait served as an internal prey-protein control and was used for normalization of the A486 nm values; conditioned medium (CM) serves as negative control; n=3.
(§4) To determine the binding specificity of DRAXIN/Netrin interactions, we carried out a pairwise binding screen between human DRAXIN and human Netrin family members. Except Netrin-5, we included all human Netrin family members consisting of two secreted γ-Netrins (Netrin-1 and Netrin-3) and one secreted (Netrin-4) and two GPI-linked β-Netrins (Netrin-G1 and Netrin-G2) in our binding study. Human DRAXIN and a 21 amino acid Netrin binding fragment derived thereof (SEQ ID NO.: 1) bound to Netrin-1 and Netrin-3 but not to human β-Netrin family members (FIG. 13).

Assay [8] has as its target T2, Netrin-3 (Homo sapiens, UniProt O00634).
T2 construct: made in house; host or cells: HEK293-6E (general AVEXIS method)
The experiment in a line: AVEXIS pairwise binding screen, human proteins. The note with it: both bait/prey orientations.
Source text: as §3, §4

Assay [9] relates to human β-Netrin family members. The experiment in a line: AVEXIS pairwise binding screen, human proteins. The following applies: Netrin-4, Netrin-G1, Netrin-G2.
Source text: as §3, §4

T2 sequence (O00634 28-580): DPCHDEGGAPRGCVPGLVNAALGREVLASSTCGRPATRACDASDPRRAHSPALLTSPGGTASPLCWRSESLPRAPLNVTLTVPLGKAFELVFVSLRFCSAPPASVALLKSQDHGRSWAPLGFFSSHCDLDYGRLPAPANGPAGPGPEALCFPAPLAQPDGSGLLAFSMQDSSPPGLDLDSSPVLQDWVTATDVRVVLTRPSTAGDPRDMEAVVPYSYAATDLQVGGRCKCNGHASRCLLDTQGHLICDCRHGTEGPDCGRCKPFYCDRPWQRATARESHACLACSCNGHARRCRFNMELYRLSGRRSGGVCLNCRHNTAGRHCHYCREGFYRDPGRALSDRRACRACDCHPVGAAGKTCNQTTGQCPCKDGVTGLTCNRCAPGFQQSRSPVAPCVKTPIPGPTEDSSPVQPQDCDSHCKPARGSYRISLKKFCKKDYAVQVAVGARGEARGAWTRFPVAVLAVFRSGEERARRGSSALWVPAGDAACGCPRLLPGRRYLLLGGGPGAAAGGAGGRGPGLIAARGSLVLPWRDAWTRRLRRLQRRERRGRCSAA

B1: DraxinA: full-length zebrafish Draxin isoform A (SEQ ID NO.: 5), 360 amino acids; purified as His-tagged CD4d3+4 fusion (protein)
chain: MVAPGLCQLFILLLITLSHTLHSSEISSDNFKQSLTPSTTTSKEHPETGLTGGRQQKRHWSGKERDSAGLFSQRHMDRLEDDGTSMEGLSPVRLEMGPGDTMKAEVHGEVRASAQMRQGSHPAEGELNRKGRRHSHRLLAEHRKHGGKKDKGRGKGDLSDPEPELDSLLKDLNAFEDGLNTSPPNYNSVPLNEVPSPLSPILVTTAIKGHPPTLPPASTKPQKSSQGRTQGEVMPTLDMTLFDWTDYEDMKPADSWPSNKRKDKRRSKNKSNGNTTTEAGIVEPCDHHLDCLSGSCCDLREFECKPHNRGLNNKCFDDCMCEEGLRCYAKFHRKRRVTRRRGRCVDPESVNSNQGAFITV
modifications: His-tagged CD4d3+4 fusion; Danio rerio
notes: purified as His-tagged CD4d3+4 fusion
On to B1, for which, in [1] (pentameric prey, library of 171 bait proteins), the “binding of prey protein to Netrin1a bait” value was “specifically bound”. For the same molecule, in [2] (Netrin1a-baits preincubated with DCC preys, then purified DraxinA added), the “disruption of already formed DCC/Netrin1a complexes” value is recorded as “can be disrupted”. Moreover, the “inhibition of binding of Netrin1a to DCC” value in assay [2] was “concentration dependent inhibition”. The “inhibition of binding of Netrin1a to Neo1” value in assay [3] is “concentration dependent inhibition”. In assay [4], the “inhibition of binding of Netrin1a to Unc5b” value is recorded as “concentration dependent inhibition”. Also, the “inhibition of binding of RGMc to Neo1” value in assay [5] is “not able to block”.

B2: Draxinaa209-284-hFc: netrin binding fragment of Draxin (aa209-284) fused to the Fc region of human IgG, affinity probe (protein)
chain: GHPPTLPPASTKPQKSSQGRTQGEVMPTLDMTLFDWTDYEDMKPADSWPSNKRKDKRRSKNKSNGNTTTEAGIVEP
modifications: left off: a dimerising Fc or GST
As to B2, the “in situ signal of bound affinity probe” value in [6] (48 hpf netrin1a and netrin1b double-knockdown embryos) is on record as “barely detectable”; in [6] (48 hpf wild type embryos), “only detect a signal in close proximity to the floor plate”.

B3: Human DRAXIN: human Draxin (SEQ ID NO.: 4) expressed as AVEXIS bait/prey protein (protein, listed as Homo sapiens)
chain: MAGPAIHTAPMLFLVLLLPLELSLAGALAPGTPARNLPENHIDLPGPALWTPQASHHRRRGPGKKEWGPGLPSQAQDGAVVTATRQASRLPEAEGLLPEQSPAGLLQDKDLLLGLALPYPEKENRPPGWERTRKRSREHKRRRDRLRLHQGRALVRGPSSLMKKAELSEAQVLDAAMEESSTSLAPTMFFLTTFEAAPATEESLILPVTSLRPQQAQPRSDGEVMPTLDMALFDWTDYEDLKPDGWPSAKKKEKHRGKLSSDGNETSPAEGEPCDHHQDCLPGTCCDLREHLCTPHNRGLNNKCFDDCMCVEGLRCYAKFHRNRRVTRRKGRCVEPETANGDQGSFINV
modifications: AVEXIS bait/prey tags
As for B3, the “binding of human Draxin to zebrafish Netrin1a” value in assay [1] (cross-species, both bait-prey orientations) is given as “able to bind”. Also, the “binding to Netrin-1” value in assay [7] is given as “bound”. In addition, the “binding to Netrin-3” value in assay [8] is “bound”. For the same molecule, the “binding to human β-Netrin family members” value in assay [9] is given as “not”.

B4: DraxinAΔaa231-252-hFc: DraxinA-hFc where the 21aa Netrin1 binding motif has been deleted (protein)
chain: SEISSDNFKQSLTPSTTTSKEHPETGLTGGRQQKRHWSGKERDSAGLFSQRHMDRLEDDGTSMEGLSPVRLEMGPGDTMKAEVHGEVRASAQMRQGSHPAEGELNRKGRRHSHRLLAEHRKHGGKKDKGRGKGDLSDPEPELDSLLKDLNAFEDGLNTSPPNYNSVPLNEVPSPLSPILVTTAIKGHPPTLPPASTKPQKSSQGRTQADSWPSNKRKDKRRSKNKSNGNTTTEAGIVEPCDHHLDCLSGSCCDLREFECKPHNRGLNNKCFDDCMCEEGLRCYAKFHRKRRVTRRRGRCVDPESVNSNQGAFITV
modifications: left off: a dimerising Fc or GST
Regarding B4, the “inhibition of binding of Netrin1a to DCC” value in [2] was “not able to compete”.

B5: DraxinA-hFc: full-length DraxinA fused to human Fc (protein)
chain: SEISSDNFKQSLTPSTTTSKEHPETGLTGGRQQKRHWSGKERDSAGLFSQRHMDRLEDDGTSMEGLSPVRLEMGPGDTMKAEVHGEVRASAQMRQGSHPAEGELNRKGRRHSHRLLAEHRKHGGKKDKGRGKGDLSDPEPELDSLLKDLNAFEDGLNTSPPNYNSVPLNEVPSPLSPILVTTAIKGHPPTLPPASTKPQKSSQGRTQGEVMPTLDMTLFDWTDYEDMKPADSWPSNKRKDKRRSKNKSNGNTTTEAGIVEPCDHHLDCLSGSCCDLREFECKPHNRGLNNKCFDDCMCEEGLRCYAKFHRKRRVTRRRGRCVDPESVNSNQGAFITV
modifications: left off: a dimerising Fc or GST
Consider B5, for which the “inhibition of binding of Netrin1a to DCC” value in [2] is listed as “able to outcompete”.
